How the values were obtained:
cortical neurons = conditions: in vitro, cortical neurons from rodents; cited from earlier work
Excerpt: The exact concentration of hypochlorite generated in cerebral spinal fluid is not known, but myeloperoxidase has been measured in human cerebrospinal fluid (CSF) from cognitively normal donors at 101 ± 43 pg/ml with corresponding activity of 0.0292 ± 0.001 mU [34]. Although myeloperoxidase activity is much less in CSF than in human serum, human serum also contains high levels of albumin which acts as an antioxidant. […] Considering that 3-chl ...

[1] = Filter trap assay (insoluble Aβ1-42 retained on cellulose acetate membrane); assay type: physicochemical; conditions: co-incubation with 1.6-fold molar excess of NaOCl vs Aβ1-42 in PBS alone; Aβ1-42 55 μM, PBS pH 7.4, overnight, ambient room temperature; 0.22 μm cellulose acetate membrane, WO2 blot densitometry; mean of n = 3
Method: (§1) When incubations differed from these standard conditions for a specific experiment, the details are provided in the relevant figure legend and in the relevant section of the Methods section.
Following treatment with NaOCl, Aβ1-42 samples were subjected to filter trap assay in order to estimate the amount of peptide present in the insoluble fraction. […] Following extraction of the soluble fraction using a vacuum, the wells of the apparatus were washed three times using 0.01% (v/v) Triton-X in PBS. […] Blots were imaged after exposure to enhanced chemiluminescence reagent (Bio-Rad, NSW, AUS) using a ChemiDoc MP Imaging system (Bio-Rad, NSW, AUS).

[2] = Western blot analysis of SDS-resistant Aβ1-42 assemblies; assay type: physicochemical; conditions: higher concentrations of NaOCl, PBS overnight at ambient room temperature; 10-20% tris-tricine gel, WO2 Western blot
Method: as §1
Gels were stained using Instant Blue stain (Abcam; Melbourne, VIC, AUS) and imaged with Geldoc Go imager (Bio-Rad, NSW, AUS).
Blots were imaged after exposure to enhanced chemiluminescence reagent (Bio-Rad, NSW, AUS) using a ChemiDoc MP Imaging system (Bio-Rad, NSW, AUS).

[3] = Size exclusion chromatography of Aβ1-42 assemblies; assay type: physicochemical; conditions: 66.67 μM Aβ1-42, PBS, 1 h ambient room temperature
Excerpt: The absorbance at 280 nm was used to monitor the elution of the peptide.

SH-SY5Y cells = assay: Incucyte endocytosis assay (colocalization with Lysotracker Red); assay type: cell-based, human; conditions: Aβ1-42-Hilyte-488 (50 μM) pre-treated with 160 μM NaOCl, compared to copper/H2O2 treatment, Ham's F12, 4 °C, 4 days; 1 μM on cells, 1 h; n = 27 areas from three wells
Method: Images of the cells were taken after 1 h using an Incucyte SX5 (Sartorius).
Aβ1-42-Hilyte-488 (50 μM) was incubated with 160 μM NaOCl or […]/H2O2 in Ham's/F12 or Ham's/F12 alone for 4 days at 4 °C. SH-SY5Y cells seeded at 15,000 cells/well in a 96-well plate were then treated with 1 μM of Aβ1-42-Hilyte-488 in NB27 containing 100 nM Lysotracker Red DND-99. Images of cells (9 images per well) were taken after 1 h using an Incucyte SX5 (Sartorius). Colocalization of Aβ1-42-Hilyte-488 with Lysotracker Red was calculated using Incucyte live cell analysis software.

[4] = BisANS assay of surface exposed hydrophobicity; assay type: physicochemical; conditions: NaOCl at sub-stoichiometric concentration vs Aβ1-42 in PBS alone, overnight, ambient room temperature, 10 μM Aβ1-42, 20 μM bisANS, 5 min, 25 °C, Ex 360 nm, Em 502 nm, mean of n = 10
Method: as §1
Aβ1-42 was treated with NaOCl and the solutions supplemented with excess L-Met. […] BisANS fluorescence (Excitation 360 nm, Emission 502 nm) was then measured using a Clariostar platereader (BMG Labtech). The data shown is the average BisANS fluorescence of n = 10 samples and is adjusted for background fluorescence.

[5] = Thioflavin T (ThT) assay of amyloid fibril formation; assay type: physicochemical
Method: Aβ1–42 (4–5 μM) was incubated at 28 °C with shaking in PBS ± NaOCl containing ThT (20–25 μM). The ThT fluorescence of the samples was continuously monitored using a Clariostar platereader with excitation and emission wavelengths of 440 nm and 480 nm (slit widths of 10 nm), respectively. The data shown is the mean fluorescence of triplicate samples and is adjusted for the background fluorescence. In additional experiments, Aβ1–42 was pre-treated with NaOCl in PBS for 1 h at ambient room temperature before being supplemented with excess L-Met (20 mM). A control sample of Aβ1–42 was incubated in the absence of NaOCl as described previously and supplemented with L-Met. Aβ1–42 preparations were then subjected to a ThT assay incubated at 37 °C under quiescent conditions, and monitored as described above. Half-time (t1/2) values are the time to reach half of the maximum ThT fluorescence, calculated after normalising the aggregation data for 3 independent assays.

[6] = Transmission electron microscopy of ThT assay end-point samples; assay type: physicochemical; conditions: end-point samples of ThT assay after NaOCl pre-treatment; 2% uranyl acetate stain
Method: Samples from the ThT kinetics assay (endpoints) were prepared for TEM on 400-mesh carbon film coated copper grids (EM resolutions Ltd.) and stained with 2% (w/v) uranyl acetate. Grids were imaged with a FEI Tecnai G2 transmission electron microscope (Cambridge Advanced Imaging Centre, University of Cambridge) and subsequent images analyzed with SIS Megaview II Image Capture system (Olympus).

[7] = Electrospray mass spectrometry of Aβ1-42 oxidation by NaOCl; assay type: physicochemical; conditions: 5-fold molar excess of NaOCl; 31 μM Aβ1-42, PBS, 1 h on ice/4 °C, quenched with 20 mM L-Met; electrospray MS
Method: Aβ1–42 (31 μM) was incubated with NaOCl (0–360 μM) in PBS on ice for 1 h and the reaction was quenched using L-Met (20 mM). Electrospray mass spectrometry was performed on a Xevo G2 mass spectrometer and data was analyzed using MassLynx software (Waters UK, Elstree, Hertfordshire, UK) at the Department of Chemistry, University of Cambridge.

[8] = system: SH-SY5Y neuroblastoma cells; assay: Incucyte Cytotox Green cell death assay; assay type: cell-based, human; conditions: Aβ1-42 (100 μM) pre-incubated with 80 μM NaOCl in Ham's/F12 2 h ambient room temperature; 15 μM Aβ1-42 on cells; vs Aβ1-42 without NaOCl
Method: Cell viability was also measured in real-time using Cytotox Green reagent (Essen Bioscience) in an Incucyte SX5 (Sartorius, South VIC, AUS), according to the manufacturer's instructions.

[Na+].[O-]Cl [hypochlorite, sodium hypochlorite]
hypochlorite concentration at which neurons are resistant to cell death (cortical neurons): up to 200 μM

NaOCl-treated Aβ1-42: Aβ1-42 pre-incubated with sodium hypochlorite; singly oxidised species in heterogeneous assemblies
reduction in insoluble Aβ1-42 detected by filter trap assay [1]: 95%
size of higher order SDS-resistant Aβ1-42 assemblies [2]: ~150 kDa
SEC approximate molecular masses of predominate peaks ([3]; 2-fold molar excess of NaOCl (133.33 μM), Superdex 75 Increase 3.2/300, A280, ≥100 kDa = exclusion limit): ≥ 100 kDa
internalisation to lysosomes (colocalization area of Aβ1-42-Hilyte-488 and Lysotracker Red) (SH-SY5Y cells): preferentially internalise

amyloid beta peptide 1–42 [Aβ1-42]
BisANS fluorescence (surface exposed hydrophobicity) [4]: substantial decrease
amyloid-associated ThT fluorescence over a 7-hr time course ([5]; co-incubation with 2-fold molar excess of NaOCl, 5 μM Aβ1-42, 25 μM ThT, PBS, 28 °C, orbital shaking, mean of n = 4): significantly suppress
increase in amyloid-associated ThT fluorescence (half-time t1/2) ([5]; pre-treatment with 1.6-fold molar excess of NaOCl in PBS 1 h RT, quenched with excess L-Met, 4 μM Aβ1-42, 25 μM ThT, 37 °C, mean of n = 3): significantly delayed
amyloid-associated ThT fluorescence over the 15 h of the assay ([5]; pre-treatment with 3.2-fold molar excess of NaOCl in PBS 1 h RT, quenched with excess L-Met, 4 μM Aβ1-42, 25 μM ThT, 37 °C, mean of n = 3): prevented
formation of amyloid fibrils by TEM [6]: markedly reduced
SEC apparent size of the majority of the peptide (monomer) ([3]; no NaOCl, Superdex 75 Increase 3.2/300, 0.05 ml/min, A280): 4.5 kDa
fraction of the peptide oxidised (singly oxidised species, 4530 Da) [7]: around half
cell death after 72 h (green object count) [8]: approximately halved

From article PMC10209884, “Hypochlorite-induced oxidation promotes aggregation and reduces toxicity of amyloid beta 1-42” (Redox Biology, 2023)
